# Measured values: paper PMC8213813, “Mechanism of genome instability mediated by human DNA polymerase mu misincorporation”
# B1: 2-nt gapped DNA, templating TT (crystallization) (dsDNA)
# DNA 1: CGGCTTTACG
# DNA 2: CGTA
# DNA 3: GCCG
# modifications: 5'-phosphate on downstream primer
# B2: 1-nt gapped DNA after dGTP insertion (T:G product) (dsDNA)
# DNA 1: CGGCTTACG
# DNA 2: CGTAG
# DNA 3: GCCG
# modifications: 5'-phosphate on downstream primer
# B3: 1-nt gapped DNA, templating T (crystallization) (dsDNA)
# DNA 1: CGGCTTACG
# DNA 2: CGTA
# DNA 3: GCCG
# modifications: 5'-phosphate on downstream primer
# Experiments:
# [1] = molecular target: T1, DNA polymerase mu core domain (WT) (Homo sapiens, UniProt Q9NP87 136-494, del398-410); assay: X-ray crystallography; dGMPNPP, 10 mM Mg2+ (Complex 1); Crystals: protein (~7 mg/ml in 25 mM Tris/HCl pH 7.5, 100 mM KCl, 1 mM DTT) with DNA at 1:1.5; binary: 0.1 M sodium citrate pH 5.5, 18% 2-propanol, PEG4000; ternary: pH 6.5-8.0, PEG3350 or PEG10000; nucleotide/metal soak 4 h at 4 °C; details: protein: recombinant; tags: His (pET28a, nickel purified); template 10 nt + upstream primer 4 nt + downstream primer 4 nt; 2-nt gap; blunt outer ends
# [2] = molecular target: T2, DNA polymerase mu core domain K438A/Q441A (Homo sapiens, UniProt Q9NP87 136-494, K438A;Q441A;del398-410); assay: X-ray crystallography; post-insertion; second dGTP (10 mM soak), 10 mM Mg2+, Na+; Crystals: protein (~7 mg/ml in 25 mM Tris/HCl pH 7.5, 100 mM KCl, 1 mM DTT) with DNA at 1:1.5; binary: 0.1 M sodium citrate pH 5.5, 18% 2-propanol, PEG4000; ternary: pH 6.5-8.0, PEG3350 or PEG10000; nucleotide/metal soak 4 h at 4 °C; details: protein: recombinant; tags: His (pET28a, nickel purified); template 9 nt + extended primer 5 nt + downstream primer 4 nt; nascent dG displaced by second dGTP
# [3] = molecular target: T1, DNA polymerase mu core domain (WT); assay: X-ray crystallography; binary; Mg2+; Crystals: protein (~7 mg/ml in 25 mM Tris/HCl pH 7.5, 100 mM KCl, 1 mM DTT) with DNA at 1:1.5; binary: 0.1 M sodium citrate pH 5.5, 18% 2-propanol, PEG4000; ternary: pH 6.5-8.0, PEG3350 or PEG10000; nucleotide/metal soak 4 h at 4 °C; details: protein: recombinant; tags: His (pET28a, nickel purified); template 9 nt + upstream primer 4 nt + downstream primer 4 nt; 1-nt gap; blunt outer ends
# [4] = molecular target: DNA polymerase mu core domain Q441A (Homo sapiens, UniProt Q9NP87 136-494, Q441A;del398-410); assay: X-ray crystallography; dGMPNPP, 10 mM Mg2+ (Complex 4); Crystals: protein (~7 mg/ml in 25 mM Tris/HCl pH 7.5, 100 mM KCl, 1 mM DTT) with DNA at 1:1.5; binary: 0.1 M sodium citrate pH 5.5, 18% 2-propanol, PEG4000; ternary: pH 6.5-8.0, PEG3350 or PEG10000; nucleotide/metal soak 4 h at 4 °C; details: protein: recombinant; tags: His (pET28a, nickel purified); template 9 nt + upstream primer 4 nt + downstream primer 4 nt; 1-nt gap; blunt outer ends
# [5] = molecular target: T2, DNA polymerase mu core domain …; assay: X-ray crystallography; dGMPNPP, 10 mM Mg2+ (Complex 5); Crystals: protein (~7 mg/ml in 25 mM Tris/HCl pH 7.5, 100 mM KCl, 1 mM DTT) with DNA at 1:1.5; binary: 0.1 M sodium citrate pH 5.5, 18% 2-propanol, PEG4000; ternary: pH 6.5-8.0, PEG3350 or PEG10000; nucleotide/metal soak 4 h at 4 °C; details: protein: recombinant; tags: His (pET28a, nickel purified); template 9 nt + upstream primer 4 nt + downstream primer 4 nt; 1-nt gap; blunt outer ends
# T1 sequence (Q9NP87 other isoform, or with tags, fused parts or gaps del398-410): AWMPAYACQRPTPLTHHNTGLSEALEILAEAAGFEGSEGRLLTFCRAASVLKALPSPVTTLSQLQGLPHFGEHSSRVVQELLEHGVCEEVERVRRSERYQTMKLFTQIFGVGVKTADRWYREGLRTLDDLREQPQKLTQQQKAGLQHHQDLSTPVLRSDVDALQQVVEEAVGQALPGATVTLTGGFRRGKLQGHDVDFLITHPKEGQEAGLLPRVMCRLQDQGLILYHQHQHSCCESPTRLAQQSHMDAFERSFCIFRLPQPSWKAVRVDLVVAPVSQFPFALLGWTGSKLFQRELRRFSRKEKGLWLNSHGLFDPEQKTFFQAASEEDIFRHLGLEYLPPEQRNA
# T2 sequence (Q9NP87 other isoform, or with tags, fused parts or gaps K438A;Q441A;del398-410 | K438A Q441A K438A Q441A): as the sequence (Q9NP87 other isoform, or with tags, fused parts or gaps del398-410) above, with K290A, Q293A counted along it
# Sequence of DNA polymerase mu core domain Q441A (Q9NP87 other isoform, or with tags, fused parts or gaps Q441A;del398-410 | Q441A Q441A): as the sequence (Q9NP87 other isoform, or with tags, fused parts or gaps del398-410) above, with Q293A counted along it
binder,measurement,setting,value
B1,binding result,[1],binds
B2,binding result,[2],binds
B3,binding result,[3],binds
same,binding result,[4],binds
same,binding result,[5],binds
